The values that follow are results of earlier work, collected in PMC11932923.

The target in the data set is IL-36R (Homo sapiens) (UniProt Q9HB29). As to the kind of experiment: Biacore SPR.
Sequence of UniProt Q9HB29 (Q9HB29 20-575): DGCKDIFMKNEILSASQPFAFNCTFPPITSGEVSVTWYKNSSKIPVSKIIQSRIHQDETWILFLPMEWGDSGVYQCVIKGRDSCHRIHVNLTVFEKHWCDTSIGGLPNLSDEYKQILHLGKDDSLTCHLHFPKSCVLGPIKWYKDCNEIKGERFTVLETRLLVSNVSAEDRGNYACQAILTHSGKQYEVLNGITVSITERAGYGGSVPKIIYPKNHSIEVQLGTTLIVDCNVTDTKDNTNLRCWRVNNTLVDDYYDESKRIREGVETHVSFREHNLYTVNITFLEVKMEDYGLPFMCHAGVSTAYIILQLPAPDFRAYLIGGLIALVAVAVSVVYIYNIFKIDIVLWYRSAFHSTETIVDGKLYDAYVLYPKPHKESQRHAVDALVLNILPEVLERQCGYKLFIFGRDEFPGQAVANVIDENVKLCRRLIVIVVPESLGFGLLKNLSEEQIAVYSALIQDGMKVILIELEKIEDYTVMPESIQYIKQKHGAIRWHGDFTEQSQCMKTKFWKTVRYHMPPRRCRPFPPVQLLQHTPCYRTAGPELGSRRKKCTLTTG

For “IL-36β (N-terminally truncated) (from UniProt Q9NZH7)”, the Kd (commonly the concentration at which binding is half-saturated) is 7 pM.
